The record followed here is the supplement of paper PMC12764529.

Data set [1] is described as follows: folding stability dG unfold from trypsin proteolysis; higher = more stable. In short, it runs like this:
(§1)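 Unfolding free energy was derived, per protease or combined, by relating Bayesian-fitted K50 values from sequencing counts to a sequence-predicted unfolded-state K50 and a shared folded-state K50. The underlying digests exposed cysteine-free mini-proteins under 80 residues, in a PA-tagged cDNA display construct, to trypsin and chymotrypsin at 11 threefold-diluted concentrations and to a no-protease condition. A filter kept only designs with AlphaFold2 dimer inter-PAE above 15.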

Data set [2] is described as follows: folding stability dG unfold from chymotrypsin proteolysis; higher = more stable. The procedure, abridged: as §1
A short description of data set [3]: folding stability dG unfold (combined trypsin and chymotrypsin); higher = more stable. In short, it runs like this: as §1

± gives the half width of the 95% confidence interval.

For the sequence “SAGGMTLVIKVTNKDGSTLTITFDAETNTITITFPDGTTRTITVPADTTIEELIAALPPDAKVEILPASAGG [r13_696_TrROS_Hall]”, the “folding stability dG unfold” value amounted to 3.42 ± 0.073 kcal/mol in data set [1], 4.75 ± 0.11 kcal/mol in data set [2] and 4.55 ± 0.1 kcal/mol in data set [3].
As to “SAGGMTRKLTFLGDIDKPVGLDGDIEIRPNPETGGFTIRVPPGVRIEAEVERLTDPPLALVTVTFLESAGGS [r16_122_TrMRF]”, the “folding stability dG unfold” value is -0.118 ± 0.082 kcal/mol in data set [1], 1.03 ± 0.074 kcal/mol in data set [2] and 0.715 ± 0.054 kcal/mol in data set [3].
Taken in the same sequence, the figures for “SAGGMTTFELYDPVNNKKYTLTYDPATNTLTLYNPENGEILETKPVPNLQSVEAPIVPGGIEVGVVINSAGG [r13_720_JUSTAS]” were 2.11 ± 0.07 kcal/mol, 2.75 ± 0.062 kcal/mol and 2.5 ± 0.085 kcal/mol.
On to “SAGGMTTTTLTLEEFLEKYPEEVVKERTEKPLGPGANLTIVTLTAPGTTITVTSNPAQPDIWTVTTVTSAGG [r13_942_JUSTAS]”, for which the results for the “folding stability dG unfold” value in data set [1], in data set [2] and in data set [3] were 0.75 ± 0.018 kcal/mol, 1.11 ± 0.049 kcal/mol and 0.965 ± 0.051 kcal/mol, respectively.
With “SAGGMTTTVELELEDPVNLGVPVRVEATVTYEKDPNGNPVAKAEITTTYPDGKEEKTTIPVSELKGLGSAGG [r13_787_JUSTAS]”, the “folding stability dG unfold” value in data set [1] was 0.294 ± 0.059 kcal/mol; in data set [2], -0.603 ± 0.13 kcal/mol; in data set [3], -0.00381 ± 0.17 kcal/mol.
For the sequence “SAGGMTVETTTVTLAAGTTYTVTTPSDSTVEVVDTETGVVRRFDVPASTDFSVTLPADRTYDITVVRRSAGG [r19_78_JUSTAS]”, the “folding stability dG unfold” value was 0.7932 ± 0.0053 kcal/mol in data set [1], 1.35 ± 0.022 kcal/mol in data set [2] and 1.15 ± 0.032 kcal/mol in data set [3].
With “SAGGMTVKITIEVEEPGKTAEELAEELARELEKAGFKVEVVSVEVEEVDGRLIVTIEVKVDSEEALKASAGG [r13_979_TrROS_Hall]”, the “folding stability dG unfold” value came to 2.36 ± 0.055 kcal/mol in data set [1], 2.55 ± 0.077 kcal/mol in data set [2] and 2.52 ± 0.058 kcal/mol in data set [3].
Take “SAGGMTVPIFVPVDSPEQVEEILEELATPDVKEIVPATLPPLPPPGDKMVVPINITIFPGTGKAVIDASAGG [r13_174_TrMRF]”: the “folding stability dG unfold” value in data set [1] was -1.08 ± 0.12 kcal/mol; in data set [2], 0.991 ± 0.014 kcal/mol; in data set [3], 0.492 ± 0.086 kcal/mol.
Turning to “SAGGMTVTIPYKGSPELAERVVEAIQEAFPEVRVEEVVVEPGDPTNITITVRFDNDVPASAIAEVLSSAGGS [r16_180_JUSTAS]”, the “folding stability dG unfold” value in data set [1] is 2.24 ± 0.041 kcal/mol; in data set [2], 1.55 ± 0.035 kcal/mol; in data set [3], 1.85 ± 0.071 kcal/mol.
Taken in the same sequence, the figures for “SAGGMTVTVKVTEIKKIGDKYEITLKNPDGTPKTVTIDDPEVVKKITPDSEVTVTVNPDGSYTITLESAGGS [r16_2_JUSTAS]” were 3.74 ± 0.28 kcal/mol, 3.48 ± 0.23 kcal/mol and 3.84 ± 0.29 kcal/mol.
Regarding “SAGGMVEELDAKDADKIIVGADPDEEVFVLVEVYDDGELLEVVELEPGEEIEIPKDYKVKIVTVPKDLSAGG [r13_978_TrMRF]”, the “folding stability dG unfold” value in data set [1] was 0.119 ± 0.081 kcal/mol; in data set [2], -0.0827 ± 0.63 kcal/mol; in data set [3] it was -0.293 ± 0.52 kcal/mol.
Turning to “SAGGMVEEVKELAKELGFDVEIELTSVYGEKGYVPYKVTFPNGKTYYITFKGSPDEMKKKLRDLLEKSAGGS [r16_153_TrMRF]”, the “folding stability dG unfold” value in data set [1] came out at 2.2 ± 0.058 kcal/mol; in data set [2] it was 2.99 ± 0.034 kcal/mol; in data set [3], 2.82 ± 0.065 kcal/mol.
As for “SAGGMVIIIPSPDNTVLIIEIEGDKAKIIIINPEDGSAVIIELPIEPNGDGSFILKITSIEVLEDADISAGG [r13_556_TrMRF]”, the figures for the “folding stability dG unfold” value in data set [1], in data set [2] and in data set [3] were 2.97 ± 0.2 kcal/mol, 3.34 ± 0.13 kcal/mol and 3.27 ± 0.26 kcal/mol, respectively.
For the sequence “SAGGMVIKVTDAEEAIERVIELVKSLGPEAVIKEITVTNTGTVVKVEPGKKGTVSPDSTITVNIEKGSAGGS [r16_267_JUSTAS]”, the “folding stability dG unfold” value in data set [1] was -0.0389 ± 0.066 kcal/mol; in data set [2], 0.938 ± 0.075 kcal/mol; in data set [3], 0.662 ± 0.14 kcal/mol.
The like results for “SAGGMVIPPEATLTGSTTSWVTTSDGRKLLVTTPVYRFPGNTTVVVSTVTDPTSAASTVTVSTEPALSAGGS [r16_370_JUSTAS]” were, in that order, 0.498 ± 0.069 kcal/mol, 0.107 ± 0.12 kcal/mol and 0.374 ± 0.085 kcal/mol.
On to “SAGGMVKLTITITTENETTTYPRVVPEEELEEVKKEAEELAKKLGADPKTVTVSKVERLKEPGGVPVSAGGS [r16_650_JUSTAS]”, for which the “folding stability dG unfold” value in data set [1] came to 0.694 ± 0.029 kcal/mol; in data set [2], 0.901 ± 0.033 kcal/mol; in data set [3], 0.856 ± 0.061 kcal/mol.
Consider “SAGGMVLFRIRFRTGPDGIVRLDPELLEQAEGADIDEDDPRVALILAEPEFLEKLSPELLEEAEILPSAGGS [r16_328_TrMRF]”, for which the “folding stability dG unfold” value in data set [1] came to 0.607 ± 0.1 kcal/mol; in data set [2] it was 0.606 ± 0.12 kcal/mol; in data set [3], 0.684 ± 0.047 kcal/mol.
For the sequence “SAGGMVLKPVKLNGNENLKTTADGAEVEYTSDGKGNVTITVRYEPNLTVEALVNGSTVTLVKTEEGYLSAGG [r13_92_JUSTAS]”, the figures for the “folding stability dG unfold” value in data set [1], in data set [2] and in data set [3] were 0.843 ± 0.09 kcal/mol, 0.937 ± 0.11 kcal/mol and 0.867 ± 0.15 kcal/mol, respectively.
Taken in the same sequence, the figures for “SAGGMVLVERDGDRLVLLIPFPADEPPTPEEVEAEARAILRELGPDVRIRSVHRLPDGGYLVEAEVDSAGGS [r8_103_TrMRF]” were 3.17 ± 0.065 kcal/mol, 3.69 ± 0.038 kcal/mol and 3.56 ± 0.041 kcal/mol.
“SAGGMVLVRFDSLEEAREHAELLEELGYEVELLPTEDYVLLLVRPLPLPPPTPEELAEALRNPGSALASAGG [r13_8_TrMRF]”: the “folding stability dG unfold” value in data set [1] worked out at 2.33 ± 0.062 kcal/mol; in data set [2], 2.671 ± 0.014 kcal/mol; in data set [3], 2.53 ± 0.066 kcal/mol.
Taken in the same sequence, the figures for “SAGGMVTKTYEFEGENGGKILIEVKEDPDKPVVTVKFYRPDGKPLFEAEIEADSIEDAIQQAKDLLASAGGS [r16_158_TrMRF]” were 3.45 ± 0.12 kcal/mol, 3.76 ± 0.11 kcal/mol and 3.66 ± 0.13 kcal/mol.
Turning to “SAGGMVVRIKVKIKNPETGEVIEVEALVEVDEDGNVTITLPNGKKITLPKGAKVEIVDVEELPPEDLSAGGS [r16_223_TrROS_Hall]”, the “folding stability dG unfold” value worked out at 3.72 ± 0.11 kcal/mol in data set [1], 3.14 ± 0.075 kcal/mol in data set [2] and 3.52 ± 0.093 kcal/mol in data set [3].
Turning to “SAGGMVYVVRLRDEDGTEYTALVEEFDGIYRVRLFDEDGELVEEREFESVEEAIDALLAEGYEVEVYPSAGG [r13_315_TrMRF]”, the “folding stability dG unfold” value in data set [1] amounted to 4 ± 0.079 kcal/mol; in data set [2] it was 4.881 ± 0.035 kcal/mol; in data set [3], 4.66 ± 0.07 kcal/mol.
For the sequence “SAGGMYRVKVGDDERLIDTDPENFKTLEEAVKKVAEKIKEEYPNRPELTITVEAEDGTPLATVTITLSSAGG [r13_257_JUSTAS]”, the results for the “folding stability dG unfold” value in data set [1], in data set [2] and in data set [3] were 0.759 ± 0.12 kcal/mol, 0.614 ± 0.19 kcal/mol and 0.894 ± 0.29 kcal/mol, respectively.
As to “SAGGNDDDQKPKMVRVKIKYDNPDGEKYKIDEIWVMPPPFIMIRMPGNGQEIFIPPDQIKEIEIEPVSAGGS [r8_410_TrROS]”, the “folding stability dG unfold” value in data set [1] is -0.149 ± 0.28 kcal/mol; in data set [2], 1.09 ± 0.081 kcal/mol; in data set [3], 0.826 ± 0.3 kcal/mol.
With “SAGGNDDNWRVIEFTFSPGNIKPEQIRSLLENAGADRITDVEVQRTPNSYTVTFYFPNGKPVEITIPSAGGS [r8_86_TrROS]”, the results for the “folding stability dG unfold” value in data set [1], in data set [2] and in data set [3] were 1.65 ± 0.038 kcal/mol, 2.37 ± 0.1 kcal/mol and 2.13 ± 0.13 kcal/mol, respectively.
